B1: OR4K15 (parent)
chain: GUUAACGGUCAUAGGCCAUGGAAACUAGGAGCACCAUUUCGCUGCCAGUGAAGAAAUGAACAAAGAAAAUCUGGGCCAGGCAGGCAUCAAAAGAAAUAGUCUUGCGCUCAACCAGAAAGUCUGUAAUCAUUUUAAGGGUA

In the data set the parent is B1. Description: self-cleavage, relative activity (ratio to wild type); higher = more cleavage; in vitro, sequencing; the parent is a self-cleaving ribozyme.
Turning to GUUAACGGUCAUAGGCCAUGGAAACUAGGAGCACCAUUUCGCUGCCAGUGAAGAAAUGAACAAAGAAAAUCUGGGCCAGGCAGGCAUCAAAAGAAAUAGUCUUGCGCUCUACCAGAAAGUCUGAAAUCAUUUUAAGGGUA [A110U U124A], the self-cleavage came out at 0.9.

With GUUAACGGUCAUAGGCCAUGGAAACUAGGAGCACCAUUUCGCUGCCAGUGAAGAAAUGAACAAAGAAAAUCUGGGCCAGGCAGGCAUCAAAAGAAAUAGUCUUGCGCUCACCCAGAAAGUCUGUAAUCAUUUUAUGGGUA [A111C A135U], the self-cleavage stood at 0.03.

Regarding GUUAACGGUCAUAGGCCAUGGAAACUAGGAGCACCAUUUCGCUGCCAGUGAAGAAAUGAACAAAGAAAAUCUGGGCCAGGCAGGCAUCAAAAGAAAUAGUCUUGCGCUCAGCCAGAAAGUCUGUAAUCAUUUUAAGGUUA [A111G G138U], the self-cleavage worked out at 0.01.

GUUAACGGUCAUAGGCCAUGGAAACUAGGAGCACCAUUUCGCUGCCAGUGAAGAAAUGAACAAAGAAAAUCUGGGCCAGGCAGGCAUCAAAAGAAAUAGUCUUGCGCUCAGCCAGAAAGUCUGUAAUCAUUUUAAUGGUA [A111G G136U]: the self-cleavage turned out to be 0.02.

As for GUUAACGGUCAUAGGCCAUGGAAACUAGGAGCACCAUUUCGCUGCCAGUGAAGAAAUGAACAAAGAAAAUCUGGGCCAGGCAGGCAUCAAAAGAAAUAGUCUUGCGCUCAGGCAGAAAGUCUGUAAUCAUUUUAAGGGUA [A111G C112G], the self-cleavage amounted to 0.

Consider GUUAACGGUCAUAGGCCAUGGAAACUAGGAGCACCAUUUCGCUGCCAGUGAAGAAAUGAACAAAGAAAAUCUGGGCCAGGCAGGCAUCAAAAGAAAUAGUCUUGCGCUCAGCCAGAAAGUCCGUAAUCAUUUUAAGGGUA [A111G U122C], for which the self-cleavage turned out to be 0.01.

Turning to GUUAACGGUCAUAGGCCAUGGAAACUAGGAGCACCAUUUCGCUGCCAGUGAAGAAAUGAACAAAGAAAAUCUGGGCCAGGCAGGCAUCAAAAGAAAUAGUCUUGCGCUCUACCAGAAAGUCUGUAAUCAUUUUAAGGGCA [A110U U139C], the self-cleavage was 0.59.

Consider GUUAACGGUCAUAGGCCAUGGAAACUAGGAGCACCAUUUCGCUGCCAGUGAAGAAAUGAACAAAGAAAAUCUGGGCCAGGCAGGCAUCAAAAGAAAUAGUCUUGCGCUCAGCCAGAAAGUCUGUAUUCAUUUUAAGGGUA [A111G A126U], for which the self-cleavage amounted to 0.01.

For GUUAACGGUCAUAGGCCAUGGAAACUAGGAGCACCAUUUCGCUGCCAGUGAAGAAAUGAACAAAGAAAAUCUGGGCCAGGCAGGCAUCAAAAGAAAUAGUCUUGCGCUCACCCAGAAAGUCUGUAAUCAUUCUAAGGGUA [A111C U132C], the self-cleavage was found to be 0.01.

As for GUUAACGGUCAUAGGCCAUGGAAACUAGGAGCACCAUUUCGCUGCCAGUGAAGAAAUGAACAAAGAAAAUCUGGGCCAGGCAGGCAUCAAAAGAAAUAGUCUUGCGCUCAGCCAGAAAGUCUGUAAUCAUUUUAGGGGUA [A111G A135G], the self-cleavage was found to be 0.02.

As to GUUAACGGUCAUAGGCCAUGGAAACUAGGAGCACCAUUUCGCUGCCAGUGAAGAAAUGAACAAAGAAAAUCUGGGCCAGGCAGGCAUCAAAAGAAAUAGUCUUGCGCUCUACCAGAAAGUCUGUAAUCAUCUUAAGGGUA [A110U U131C], the self-cleavage worked out at 0.65.

As for GUUAACGGUCAUAGGCCAUGGAAACUAGGAGCACCAUUUCGCUGCCAGUGAAGAAAUGAACAAAGAAAAUCUGGGCCAGGCAGGCAUCAAAAGAAAUAGUCUUGCGCUCAGCCAGAAAGCCUGUAAUCAUUUUAAGGGUA [A111G U120C], the self-cleavage amounted to 0.01.

With GUUAACGGUCAUAGGCCAUGGAAACUAGGAGCACCAUUUCGCUGCCAGUGAAGAAAUGAACAAAGAAAAUCUGGGCCAGGCAGGCAUCAAAAGAAAUAGUCUUGCGCUCAGCCAGACAGUCUGUAAUCAUUUUAAGGGUA [A111G A117C], the self-cleavage was determined as 0.

Consider GUUAACGGUCAUAGGCCAUGGAAACUAGGAGCACCAUUUCGCUGCCAGUGAAGAAAUGAACAAAGAAAAUCUGGGCCAGGCAGGCAUCAAAAGAAAUAGUCUUGCGCUCAGCCAGAUAGUCUGUAAUCAUUUUAAGGGUA [A111G A117U], for which the self-cleavage turned out to be 0.

For GUUAACGGUCAUAGGCCAUGGAAACUAGGAGCACCAUUUCGCUGCCAGUGAAGAAAUGAACAAAGAAAAUCUGGGCCAGGCAGGCAUCAAAAGAAAUAGUCUUGCGCUCAGCCAGAAAGUCUGGAAUCAUUUUAAGGGUA [A111G U124G], the self-cleavage amounted to 0.01.

In the case of GUUAACGGUCAUAGGCCAUGGAAACUAGGAGCACCAUUUCGCUGCCAGUGAAGAAAUGAACAAAGAAAAUCUGGGCCAGGCAGGCAUCAAAAGAAAUAGUCUUGCGCUCUACCAGAAAGCCUGUAAUCAUUUUAAGGGUA [A110U U120C], the self-cleavage amounted to 0.08.

As to GUUAACGGUCAUAGGCCAUGGAAACUAGGAGCACCAUUUCGCUGCCAGUGAAGAAAUGAACAAAGAAAAUCUGGGCCAGGCAGGCAUCAAAAGAAAUAGUCUUGCGCUCAGCCAGAAAGUCUGUAAUCAUUUUAAGGGUG [A111G A140G], the self-cleavage stood at 0.

As to GUUAACGGUCAUAGGCCAUGGAAACUAGGAGCACCAUUUCGCUGCCAGUGAAGAAAUGAACAAAGAAAAUCUGGGCCAGGCAGGCAUCAAAAGAAAUAGUCUUGCGCUCACCCAGAAAGUCUGUAAUCAUUUUAAGGGUG [A111C A140G], the self-cleavage was determined as 0.01.

As for GUUAACGGUCAUAGGCCAUGGAAACUAGGAGCACCAUUUCGCUGCCAGUGAAGAAAUGAACAAAGAAAAUCUGGGCCAGGCAGGCAUCAAAAGAAAUAGUCUUGCGCUCUACCAGAAAGUCCGUAAUCAUUUUAAGGGUA [A110U U122C], the self-cleavage is 0.92.

Regarding GUUAACGGUCAUAGGCCAUGGAAACUAGGAGCACCAUUUCGCUGCCAGUGAAGAAAUGAACAAAGAAAAUCUGGGCCAGGCAGGCAUCAAAAGAAAUAGUCUUGCGCUCUACCAGAAAGUCUGUAAUCACUUUAAGGGUA [A110U U130C], the self-cleavage came out at 1.06.

Consider GUUAACGGUCAUAGGCCAUGGAAACUAGGAGCACCAUUUCGCUGCCAGUGAAGAAAUGAACAAAGAAAAUCUGGGCCAGGCAGGCAUCAAAAGAAAUAGUCUUGCGCUCUACCAGAAAGUCUGUAAUCAUUUUAAGAGUA [A110U G137A], for which the self-cleavage came out at 1.55.

The record behind these values is the RNAGym collection of RNA variant scans (doi:10.7554/elife.90254).
